Here are results for two molecules from article PMC4899871, “The T300A Crohn's disease risk polymorphism impairs function of the WD40 domain of ATG16L1” (Nature Communications, 2016).

Assay in all cases: peptide or protein array; Peptides immobilised through the N-terminus (Tds spacer) on glass slides (JPT), nine spots per peptide; recombinant ligand 400 nM to 1 uM in PBS/0.05% Tween-20 with 5% BSA, 2 h at room temperature then overnight at 4 °C; detected with anti-HA plus anti-GST and Cy5-labelled secondary antibodies; background of a FLAG peptide subtracted
What all share (conditions): both partners purified

Test [1] has as its target T1, GST-HA-ATG16L1-231–607 A300, purified from human cells (human, UniProt Q676U5 231-607, T300A).
T1 construct: source: HEK-293T, retrovirally transduced, purified (GSH-agarose)

Test [2] concerns the target T2, GST-HA-ATG16L1-320–607 (recombinant WD40 domain fused to GST and the HA tag) (human, UniProt Q676U5 320-607).
T2 construct: source: E. coli BL21 (pGEX), purified (GSH-agarose, eluted with reduced GSH)

Test [3] has as its target T3, GST-HA-ATG16L1-231–607 T300, purified from human cells (human, UniProt Q676U5 231-607).
T3 construct: source: HEK-293T, retrovirally transduced, purified (GSH-agarose)

Ends that are not written are not given here. Tds = not defined here

T3 sequence (Q676U5 231-607): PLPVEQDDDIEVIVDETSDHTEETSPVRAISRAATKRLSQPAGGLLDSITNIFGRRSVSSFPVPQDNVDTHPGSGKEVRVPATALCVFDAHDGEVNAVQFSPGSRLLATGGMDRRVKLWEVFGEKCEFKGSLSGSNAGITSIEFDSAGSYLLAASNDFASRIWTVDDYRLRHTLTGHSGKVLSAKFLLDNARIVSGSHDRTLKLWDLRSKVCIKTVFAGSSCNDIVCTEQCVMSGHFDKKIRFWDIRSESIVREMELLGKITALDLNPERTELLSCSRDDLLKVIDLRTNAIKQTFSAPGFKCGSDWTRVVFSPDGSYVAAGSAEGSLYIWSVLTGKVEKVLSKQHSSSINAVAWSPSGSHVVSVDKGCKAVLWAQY
T2 sequence (Q676U5 320-607): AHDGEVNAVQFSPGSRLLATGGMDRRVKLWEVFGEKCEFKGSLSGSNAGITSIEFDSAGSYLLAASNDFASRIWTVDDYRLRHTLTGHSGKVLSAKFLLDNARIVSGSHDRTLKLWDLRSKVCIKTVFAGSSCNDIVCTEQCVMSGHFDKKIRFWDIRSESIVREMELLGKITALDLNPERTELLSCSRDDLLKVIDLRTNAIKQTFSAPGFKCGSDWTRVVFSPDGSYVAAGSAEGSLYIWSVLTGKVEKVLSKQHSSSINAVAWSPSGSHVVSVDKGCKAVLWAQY
T1 sequence (Q676U5 231-607 T300A): as the sequence (Q676U5 231-607) above, with T70A counted along it

B1: TMEM59 263–281 peptide, wild type (19-amino acid peptide that includes the ATG16L1-binding motif) (peptide, UniProt Q9BXS4 263-281, looked up)
peptide: Tds-TAVEQYVPSEKLSIYGDLE
modifications: not fully specified; reading uncertain
notes: TMEM59 residues 263-281 of the intracellular domain; also called WT peptide; native peptide; source: synthetic peptide on microarray, bought: JPT (Germany)
Take B1: the binding result in test [1], in test [2] and in test [3] was “binds” each time.

B2: TMEM59 263–281 peptide E272A (peptide, UniProt Q9BXS4 263-281, looked up)
peptide: Tds-TAVEQYVPSAKLSIYGDLE
modifications: reading uncertain
notes: TMEM59 residues 263-281 with E272A; source: synthetic peptide on microarray, bought: JPT (Germany)
For the molecule B2, the binding result in test [3] was “binds”.
